Assay results taken from patent publication US20230227540A1 (ABL BIO, published 2023).
Where a chain is given by its changes, count along the chain named. Where “and” joins values, the source holds several entries; their conditions need not be identical. Equal entries are not always repeated.

B1: 1E4 (antibody, V domains shown)
VH: EVQLQESGAELVRPGTSVKVSCKASGYAFTNYLIEWVKQRPGQGLEWIGVINPGSGGTNYNEKFKGKATLTADKSSSTAYMQLSSLTSDDSAVYFCASGNYDTYWGQGTLVTVSA
VL: DIVMTQSPLSLPVSLGDQASISCRSSQSLVHSNGNTYLHWYLQKPGQSPKLLIYKVSNRFSGVPDRFSGSGSGTDFTLKISRVEAEDLGVYFCSQSTHVPRTFGGGTKLEIK
notes: Antibody purified from a mouse hybridoma, raised against the full-length (140 residues) α-Syn aggregate; Only the variable domains are tied to the clone as tested; also called mouse monoclonal anti α-Syn antibody 1E4
B2: 10F10 (antibody, IgG2a, V domains shown)
VH: EVQLQESGPGLVKPSQSLSLTCSVTGYSITGGFYWNWIRQFPGNNLEWMGYINYDGSSDYSPSLKNRISITRDTSKNQFFLNLNSVTTEDTATYYCVRGDYDWGQGTTLTVSS
VL: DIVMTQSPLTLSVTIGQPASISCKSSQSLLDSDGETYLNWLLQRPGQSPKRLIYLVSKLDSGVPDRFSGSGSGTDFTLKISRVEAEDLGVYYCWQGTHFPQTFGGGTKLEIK
notes: Only the variable domains are tied to the clone as tested; also called mouse monoclonal anti α-Syn antibody 10F10
B3: 11F11 (antibody, IgG2b, V domains shown)
VH: EVQLQESGGGLVQPGGSLRLSCATSGFTFSDFYMEWVRQPPGKRLEWIAASRNKANDYTTEYSASVKGRFIVSRDTSQSILYLQMNALRAEDTAIYYCARDAHGKPFAYWGQGTLVTVSA
VL: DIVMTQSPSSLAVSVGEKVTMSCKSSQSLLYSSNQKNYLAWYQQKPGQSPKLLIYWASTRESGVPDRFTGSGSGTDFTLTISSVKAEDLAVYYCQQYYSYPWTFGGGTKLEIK
notes: Only the variable domains are tied to the clone as tested; also called mouse monoclonal anti α-Syn antibody 11F11
B4: 3A9 (antibody, V domains shown)
VH: EVQLQESGGGLVKPGGSLKLSCAASGFTFSSYAMSWVRQTPEKRLEWVATISNGGGYTYYPDSVKGRFTISRDNAKNTLYLQMSSLRSEDTAMYYCARHITTVRPTKYFDYWGQGTTLTVSS
VL: DIVMTQSPKFMSTSVGDRVSITCKASQNVGTTVAWYQQKPGQSPKLLIYSASNRYTGVPDRFTGSGSGTDFTLTISNMQSEDLADYFCQQYSNYPLTFGAGTKLELR
notes: Only the variable domains are tied to the clone as tested; also called mouse monoclonal anti α-Syn antibody 3A9
B5: 9B11 (antibody, V domains shown)
VH: EVQLQESGGGLVQPKGSLKLSCAASGFTFNTYAMNWVRQAPGKGLEWVARIRSKSNNYATYYADSVKDRFTISRDDSQSMLYLQMNNLKTEDTAMYYCVRQDFDYWGQGTTLTVSS
VL: B1 VL with R101L, G105A, I111Q
notes: Antibody purified from a mouse hybridoma, raised against the full-length α-Syn aggregate; Only the variable domains are tied to the clone as tested; also called mouse monoclonal anti α-Syn antibody 9B11
B6: AC8 (scFv, V domains shown)
VH: EVQLLESGGGLVQPGGSLRLSCAASGFTFSDYSMSWVRQAPGKGLEWVSGISSGGSSKYYADSVKGRFTISRDNSKNTLYLQMNSLRAEDTAVYYCAKIFHNFDYWGQGTLVTVSS
VL: QSVLTQPPSASGTPGQRVTISCSGSSSNIGSNNVYWYQQLPGTAPKLLIYYDSQRPSGVPDRFSGSKSGTSASLAISGLRSEDEADYYCASWDASLSAYVFGGGTKLTVLG
notes: Clone from a human scFv phage library; The screen used soluble HA-tagged scFv; The dot blot was detected with anti-human Fc-HRP, so an Fc-bearing format may have been used there; also called ScFV anti α-Syn antibody AC8
B7: AE8 (scFv, V domains shown)
VH: EVQLLESGGGLVQPGGSLRLSCAASGFTFSNYAMSWVRQAPGKGLEWVSAISSGGGNIYYADSVKGRFTISRDNSKNTLYLQMNSLRAEDTAVYYCARRPLYFDYWGQGTLVTVSS
VL: B6 VL with S31N, N33S, Y35N, Y51A, D52N, S53N, Q54N, A90G, S97N, A98G
notes: Clone from a human scFv phage library; also called ScFV anti α-Syn antibody AE8
B8: AD7 (scFv, V domains shown)
VH: B7 VH with N31G, S53P, G54N, I58K, L101V
VL: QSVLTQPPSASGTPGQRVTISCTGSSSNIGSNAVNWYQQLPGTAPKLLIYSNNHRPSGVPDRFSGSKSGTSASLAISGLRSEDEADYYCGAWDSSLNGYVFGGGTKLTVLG
notes: Clone from a human scFv phage library; also called ScFV anti α-Syn antibody AD7
B9: AA9 (scFv, V domains shown)
VH: EVQLLESGGGLVQPGGSLRLSCAASGFTFSSYSMSWVRQAPGKGLEWVSAIYPGSSNKYYADSVKGRFTISRDNSKNTLYLQMNSLRAEDTAVYYCARHAATFDYWGQGTLVTVSS
VL: B6 VL with N33Y, Y35S, Y51G, S53N, Q54K, A90G, S91A, A94D, A98G
notes: Clone from a human scFv phage library; also called ScFV anti α-Syn antibody AA9
B10: DG5 (scFv, V domains shown)
VH: EVQLLESGGGLVQPGGSLRLSCAASGFTFSNYAMSWVRQAPGKGLEWVSVISPGSGNTYYADSVKGRFTISRDNSKNTLYLQMNSLRAEDTAVYYCARVTIACPTKRCSYSNGMDVWGQGTLVTVSS
VL: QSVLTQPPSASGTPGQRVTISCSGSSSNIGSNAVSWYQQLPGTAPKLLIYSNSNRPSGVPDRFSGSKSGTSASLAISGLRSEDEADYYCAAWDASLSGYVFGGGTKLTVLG
notes: Clone from a human scFv phage library; also called ScFV anti α-Syn antibody DG5
B11: AD2 (scFv, V domains shown)
VH: B6 VH with D31N, S33A, G50A, S53H, G54S, K98R, I99S, F100G, H101N
VL: B6 VL with S23T, S31N, N33S, Y35S, Y51S, S53N, Q54N, A90G, A98G
notes: Clone from a human scFv phage library; also called ScFV anti α-Syn antibody AD2
B12: DG11 (scFv, V domains shown)
VH: B10 VH with N31D, N57S, T58K, R98K, A102S, P104A, T105R, K106M, S111A, N112D
VL: B6 VL with S23T, N33S, Y35S, Y51A, D52N, Q54N, S91A
notes: Clone from a human scFv phage library; also called ScFV anti α-Syn antibody DG11
B13: DG8 (scFv, V domains shown)
VH: EVQLLESGGGLVQPGGSLRLSCAASGFTFSDHAMSWVRQAPGKGLEWVSVISHGNGSKYYADSVKGRFTISRDNSKNTLYLQMNSLRAEDTAVYYCARVASRCRRGRCSYSDGMDVWGQGTLVTVSS
VL: B6 VL with N33S, Y35S, Y51A, D52N, S53N, Q54N, A90G, S91A, A94S
notes: Clone from a human scFv phage library; also called ScFV anti α-Syn antibody DG8
B14: DA9 (scFv, V domains shown)
VH: B10 VH with G54S, S55D, G56S, I101L, A102S, P104R, T105A, K106S
VL: B6 VL with S26P, S31N, N33S, Y35S, Y51A, D52N, Q54H, A90G, S97N, A98G
notes: Clone from a human scFv phage library; also called ScFV anti α-Syn antibody DA9

How the values were obtained:
α-syn aggregate [1] = biological target: T1, α-syn aggregate (human, UniProt P37840 1-140); experiment: ELISA (Example 2-2), column Fibrils
Experimental: ELISA analysis was performed to quantitatively analyze the binding affinity of the antibody of the present invention to the antigen. For this, alpha-synuclein antibody of the present invention was coated on a 96-well plate at a concentration of 1 mg/ml and treated with alpha, synuclein fibril aggregates at 10, 100, 1000 and 10,000 ng/ml. After washing with PBS, streptavidin conjugated with HRP and secondary antibody conjugate with biotin was treated and then reacted with TMB as a substrate. The absorbance was measured.

α-syn aggregate [2] = biological target: T1, α-syn aggregate; experiment: Octet (BLI), α-syn aggregate (Example 2-6)
Experimental: Specifically, the running buffer was 1 x KB buffer (cat. 18-1092) or 1 x PBS buffer at 1000 rpm, and the immobilization buffer was sodium acetate, pH 5 (10 mM, Cat 18-1068. α-syn monomers was immobilized the α-syn antigen, and fibrils was immobilized the test antibody. The target concentrations were 20 µg/ml for the monomer and 0.4 µg/ml for the fibril. The kinetics concentration was diluted sequentially two times from 50 nM for monomers and from 100 nM for fibrils, to give 7 points in total, respectively. Association/dissociation time was 5 min / 20 min for monomer and 5 min / 25 min for fibril. Biosensor was ARG2 and fitting was performed using 1: 1 fitting model.
Octet analysis was performed as described in Examples 2-4 using the ScFV anti-Syn antibodies selected in Example 1-2.

α-syn monomer = α-syn monomer (human, UniProt P37840 1-140); experiment: ELISA (Example 2-2), column Monomers
α-syn aggregate [3] = biological target: T1, α-syn aggregate; experiment: BIAcore (SPR), 1:1 binding model (Example 2-3), column Fibrils
Experimental: Quantitative analysis of the binding of alpha-synuclein antibody prepared in Example 1 to monomer and aggregate antigen was performed using BIAcore analysis.
The used instrument was T200 (GE Healthcare, S / N: 1565888). Protein A is used as a chip (GE Healthcare, Cat. 29-1275-56). 10 mM Glycine-HCl pH 1.5 (GE Healthcare, Cat. BR-1003-54) was regeneration buffer. The running buffer, analyte dilution, and the sample dilution buffer were HBS-EP. The α-syn antibodies (3A9, 9B11 and 11F11) prepared in Example 1 were diluted with 1 x HBS-EP (GE Healthcare, Cat. BR-1006-69), and alpha-synuclein monomer (1 mg/ml) and fibril protein (3 mg / ml) were serially diluted in duplicate and analyzed at 6 concentrations (0, 0.39, 1.56, 6.25, 25, 100 nM) including 0 nM in total. For the capture, the monomer was for RU of 800 (theoretical), and a fibril was for RU of 100 (theoretical). The capture phase was performed at contact time of 60 seconds, a flow rate of 30 µl / min, and a stabilization period of 180 seconds. The association phase was performed at the association time of 120 seconds and the flow rate was 30 µl/min. The dissociation phase was performed at the dissociation time of 360 seconds and the flow rate of 30 µl/min. The regeneration phase was performed twice time at the regeneration time of 240 seconds (primary) and 60 seconds (secondary) and a flow rate of 30 µl/min. The fitting was carried out suing 1: 1 binding model, and the evaluation software was BIACore T200 Evaluation software (GE healthcare).

Binder | EC50 (α-syn aggregate [1]) | Kd (α-syn aggregate [2]) | EC50 (α-syn monomer) | Kd (α-syn aggregate [3])
B1 | 0.0245 µg/mL and 0.163 nM | 0.18 nM |  | 
B2 | 0.087 nM and 0.0131 µg/mL | 0.81 nM | 0.0233 µg/mL and 0.155 nM | 
B3 | 0.327 µg/mL and 2.18 nM | 0.16 nM |  | 2.87 nM
B4 | 0.319 µg/mL and 2.13 nM | 0.13 nM |  | 1.32 nM
B5 | 0.185 µg/mL and 1.23 nM | 0.018 nM |  | 0.904 nM
B6 |  | 0.24 nM |  | 
B7 |  | 0.39 nM |  | 
B8 |  | 0.17 nM |  | 
B9 |  | 0.88 nM |  | 
B10 |  | 1.26 nM |  | 
B11 |  | 1.67 nM |  | 
B12 |  | 2.66 nM |  | 
B13 |  | 3.8 nM |  | 
B14 |  | 4.31 nM |  | 
